This test concerns the target C4-AM2 monobody. The experiment in a line: BLI.

As to “SARS-CoV-2 S protein receptor-binding domain, Alpha variant (B.1.1.7) (from UniProt P0DTC2) (domain or fragment)”, the Kd was < 0.01 nM.
Under “SARS-CoV-2 S protein receptor-binding domain, Beta variant (B.1.351) (from UniProt P0DTC2) (domain or fragment)” stands 6.3 nM.

Source of the values: paper PMC8906176.
